The values below come from the RNAGym collection of RNA variant scans (doi:10.7554/elife.80360).

B1: Hairpin Ribozyme (parent)
chain: GUCCUCUUUCACGUGCGCGUGAAAGAGAGAAGUGAACCAGAGAAACACACGUUGUGGUAUAUUACCUGGUA

This series covers variants of B1. Kind of series: self-cleavage, relative activity (ratio to wild type); higher = more cleavage; co-transcriptional.
As to G42C U58G, the self-cleavage was 0.289.

With A41C U55G, the self-cleavage was 0.285.

For the variant G42A A44U, the self-cleavage stood at 0.207.

As for G42A A44C, the self-cleavage was 0.27.

G42A A44G: the self-cleavage stood at 0.201.

In the case of A41U U67C, the self-cleavage came out at 0.456.

On to G42A C50A, for which the self-cleavage amounted to 0.186.

Turning to A41G G42U, the self-cleavage amounted to 0.236.

G42A A64G: the self-cleavage came out at 0.141.

Turning to A41C U53A, the self-cleavage was determined as 0.786.

Regarding G42A U58A, the self-cleavage was found to be 0.139.

Turning to G42A U58G, the self-cleavage was 0.17.

Consider A41U A71U, for which the self-cleavage was determined as 1.15.

Turning to G42U C48G, the self-cleavage was 0.134.

Turning to A41U A45C, the self-cleavage worked out at 0.258.

For G42C U53G, the self-cleavage turned out to be 0.244.

Take A41U U52G: the self-cleavage is 1.07.

For the variant G42C U52A, the self-cleavage was determined as 0.256.

Consider A41G G56C, for which the self-cleavage was determined as 0.165.

On to A41C C65A, for which the self-cleavage was 0.782.

A41C C65G: the self-cleavage was found to be 0.247.

For A41C C65U, the self-cleavage stood at 0.513.

In the case of G42U U53G, the self-cleavage turned out to be 0.198.

As for A41G U58G, the self-cleavage was 1.1.

A41U G56C: the self-cleavage was determined as 0.149.

Regarding A41G U62G, the self-cleavage is 0.325.

On to A41C G56U, for which the self-cleavage is 0.0688.

Turning to A41U C65G, the self-cleavage was determined as 0.563.

As for A41G C65G, the self-cleavage was determined as 1.13.

Consider A41U G51A, for which the self-cleavage turned out to be 1.11.

In the case of G42A U63A, the self-cleavage is 0.174.

With G42U A44G, the self-cleavage was found to be 0.267.

Regarding A41U U70C, the self-cleavage amounted to 1.42.

Turning to A43C A45U, the self-cleavage is 0.203.

For the variant A43C A45G, the self-cleavage stood at 0.116.

For A41G A44C, the self-cleavage is 0.109.

As for G42A A59C, the self-cleavage stood at 0.195.

Take A41G A45U: the self-cleavage was determined as 0.105.

As for A41G A45C, the self-cleavage is 0.101.

On to A41G A45G, for which the self-cleavage was 0.225.

Regarding A41G A59G, the self-cleavage was 0.17.

On to A41C U60G, for which the self-cleavage is 0.998.

In the case of A41G U55A, the self-cleavage is 0.228.

Regarding A41G U70A, the self-cleavage was found to be 0.97.

In the case of G42A A45C, the self-cleavage amounted to 0.0962.

G42U A64G: the self-cleavage came to 0.154.

For the variant G42U A64U, the self-cleavage was 0.186.

As to G42U A64C, the self-cleavage turned out to be 0.18.

Consider A41U A59U, for which the self-cleavage came out at 0.241.

G42A U53A: the self-cleavage stood at 0.184.

With G42U A47C, the self-cleavage was found to be 0.22.

As to G42U A47U, the self-cleavage stood at 0.12.

Consider G42U A47G, for which the self-cleavage is 0.107.

Consider G42C A71C, for which the self-cleavage was determined as 0.664.

Regarding G42U U70G, the self-cleavage came out at 0.105.

G42C U63A: the self-cleavage was found to be 0.18.

For the variant A41C U67A, the self-cleavage is 0.27.

Regarding A43C A44U, the self-cleavage came out at 0.171.

In the case of G42U U52A, the self-cleavage was determined as 0.379.

Regarding G42U U52G, the self-cleavage is 0.135.

With G42U U52C, the self-cleavage turned out to be 0.4.

Take A41U U60C: the self-cleavage was determined as 1.24.

For the variant A41G U52A, the self-cleavage stood at 0.669.

Regarding A41U U53A, the self-cleavage was 1.28.

With G42A U62G, the self-cleavage is 0.154.

For the variant G42U G68U, the self-cleavage came out at 0.14.

Regarding G42A G54A, the self-cleavage came to 0.153.

For the variant G42A G54U, the self-cleavage stood at 0.136.

On to G42A G54C, for which the self-cleavage is 0.168.

Regarding A41G A64U, the self-cleavage amounted to 0.206.

On to A41G A64C, for which the self-cleavage was 0.0864.

As for G42C G51A, the self-cleavage was 0.415.

As to G42C C46G, the self-cleavage came to 0.103.

Consider A41C G69U, for which the self-cleavage stood at 0.341.

Consider A41C G69C, for which the self-cleavage stood at 0.287.

Regarding A41C G69A, the self-cleavage was found to be 0.524.

For A41G U60A, the self-cleavage was determined as 0.761.

For the variant A41U A61U, the self-cleavage is 0.399.

With A41U A61G, the self-cleavage is 0.148.

Consider G42A C46G, for which the self-cleavage turned out to be 0.106.

G42U A61G: the self-cleavage was 0.167.

For the variant A41G U67A, the self-cleavage turned out to be 0.527.

As for A41U A44U, the self-cleavage amounted to 0.161.

Turning to A41G C50G, the self-cleavage came out at 0.325.

As for A41G C50U, the self-cleavage stood at 0.385.

Turning to G42C A49G, the self-cleavage was 0.244.

As to G42C A49U, the self-cleavage came out at 0.155.

Consider G42A G68A, for which the self-cleavage was 0.14.

For the variant G42A G68C, the self-cleavage is 0.15.

Regarding G42U C46G, the self-cleavage stood at 0.156.

For the variant G42U A49U, the self-cleavage worked out at 0.24.

In the case of A41C U70C, the self-cleavage was 1.04.

As to A41C G68C, the self-cleavage is 0.225.

A41C G68U: the self-cleavage came to 0.177.

A41C G68A: the self-cleavage turned out to be 0.249.

For G42C A43C, the self-cleavage turned out to be 0.137.

In the case of A41C U52C, the self-cleavage is 0.79.

G42C A47C: the self-cleavage was 0.149.

G42C G56U: the self-cleavage worked out at 0.117.

Regarding G42U U63C, the self-cleavage came out at 0.213.

In the case of A43C A47G, the self-cleavage was 0.0478.

Turning to G42C U67C, the self-cleavage is 0.137.

For G42U U67C, the self-cleavage amounted to 0.131.

On to G42U G69A, for which the self-cleavage worked out at 0.142.

For G42U G69C, the self-cleavage is 0.136.

For G42U G69U, the self-cleavage was determined as 0.136.

In the case of A41U U63G, the self-cleavage was 0.223.

A41U U63C: the self-cleavage was determined as 0.248.

A41U A49U: the self-cleavage was found to be 0.725.

For A43C A49C, the self-cleavage was 0.199.

Regarding G42A A71G, the self-cleavage was 0.296.

Consider A41G C46U, for which the self-cleavage is 0.0954.

Turning to G42A U70A, the self-cleavage was determined as 0.0455.

As for A41C G54U, the self-cleavage was 0.724.

Turning to G42A G56U, the self-cleavage is 0.13.

For the variant G42A G56A, the self-cleavage amounted to 0.191.

Regarding A41U G68A, the self-cleavage turned out to be 0.504.

As to G42C A61C, the self-cleavage came to 0.133.

On to A41C G57A, for which the self-cleavage stood at 0.128.

For the variant G42U C65A, the self-cleavage is 0.142.

Consider G42A G69U, for which the self-cleavage is 0.219.

As for G42C C50U, the self-cleavage came to 0.0822.

Regarding G42C C50G, the self-cleavage stood at 0.0792.

For the variant G42C C65G, the self-cleavage came out at 0.117.

In the case of G42C C65U, the self-cleavage is 0.215.

As for G42A A47U, the self-cleavage was 0.0842.

Consider G42A C48A, for which the self-cleavage came to 0.0835.

As to A41G U63A, the self-cleavage was 0.328.

Consider G42A G51A, for which the self-cleavage stood at 0.25.

With G42A G51U, the self-cleavage amounted to 0.207.

On to G42A G51C, for which the self-cleavage is 0.21.

As to A41U C46U, the self-cleavage amounted to 0.0994.

Take G42A A43G: the self-cleavage came to 0.0927.

With G42U G56A, the self-cleavage stood at 0.231.

Turning to A41C C48A, the self-cleavage came to 0.218.

Consider A41U C50A, for which the self-cleavage was 0.673.

On to G42A C65A, for which the self-cleavage is 0.0752.

G42A C65G: the self-cleavage worked out at 0.132.

Turning to G42A C65U, the self-cleavage is 0.103.

A41G A49C: the self-cleavage stood at 0.0938.

As to A41U G54A, the self-cleavage is 1.03.

Consider A41C G42C, for which the self-cleavage is 0.218.

In the case of G42A A49U, the self-cleavage was found to be 0.11.

G42A A49C: the self-cleavage turned out to be 0.168.

As to G42U C66U, the self-cleavage is 0.232.

With G42U C66G, the self-cleavage came to 0.155.

G42A G57U: the self-cleavage came to 0.0918.

In the case of A41U G42A, the self-cleavage was 0.321.

Turning to A41U A43G, the self-cleavage came out at 0.0919.

Consider A41U A43C, for which the self-cleavage stood at 0.231.

In the case of A41G G68A, the self-cleavage was found to be 0.55.

Turning to A41U A47C, the self-cleavage was 0.955.

Regarding G42C U60G, the self-cleavage was 0.211.

Regarding G42C U60A, the self-cleavage was 0.133.

As to G42C A64C, the self-cleavage was found to be 0.252.

G42C A64U: the self-cleavage was 0.0972.

As to G42U U55G, the self-cleavage is 0.165.

Turning to G42U U55C, the self-cleavage was 0.155.

Take A41C U62C: the self-cleavage worked out at 0.329.

As to A41U C48U, the self-cleavage came out at 0.132.

As for A41U C48A, the self-cleavage worked out at 0.31.

In the case of A41G C48A, the self-cleavage stood at 0.0982.

Turning to G42C G57A, the self-cleavage was determined as 0.1.

In the case of G42C G57C, the self-cleavage is 0.0624.

For G42A, the self-cleavage is 0.223.

G42U: the self-cleavage is 0.289.

As to G42C, the self-cleavage was determined as 0.318.
